Where “and” joins values, the source holds several entries; their conditions need not be identical. Equal values may be shown once.
Legend:
[1] = target: E. coli AcpP (Escherichia coli, UniProt P0A6A8); conditions: FAS; crypto-CP (coumarin-PPant), overnight, 37° C., 1 μM AcpH
Description: (§1) Unless otherwise noted, all coumarin-PPant labeling proceeded as follows: apo-carrier protein or peptide at 50-200 μM were labeled in 50 mM Na-HEPES pH 7.5, 10 mM MgCl2, 8 mM ATP, 0.1 μM MBP-CoaA/D/E, 0.1 μM native Sfp, and 1.1 equivalents of coumarin-pantetheine at 37° C. overnight. Crypto-protein samples were repurified using standard IMAC techniques in pH 8 lysis buffer with Ni-NTA resin, and spin-concentrated/buffer exchanged to remove imidazole and concentrate with 0.5 mL 3 kDa MWCO cellulose filters. Crypto-peptide samples were purified with HPLC, lyophilized, and redissolved in 50 mM TrisCl pH 8.0 prior to analysis.
(§2) Following AcpH treatment, an equal volume of 2×SDS-PAGE loading dye was added to crypto-carrier proteins samples and heated 5 min at 90° C., and run on 12% or 15% SDS-PAGE. Gels were fixed in 50/40/10% water/methanol/acetic acid for 30 minutes, and washed with water three times before UV imaging. Holo-carrier protein reactions were analyzed with Urea-PAGE as previously described.^6 All protein gels were Coomassie stained for evaluating total protein. Crypto-peptides were evaluated on Urea-PAGE, and were imaged immediately after running with no gel fixing.

[2] = target: P. aeruginosa AcpP (Pseudomonas aeruginosa, UniProt O54439); conditions: FAS; crypto-CP (coumarin-PPant), overnight, 37° C., 1 μM AcpH
Description: as §1, §2

[3] = test system: S. oneidensis AcpP; assay: AcpH qualitative CP activity, holo-SoAcpP, Urea-PAGE; type: biochemical; conditions: FAS, Urea-PAGE gel-shift, shorter timescale
[4] = test system: P. falciparum ACP; assay: AcpH qualitative CP activity, gel-based, crypto-CP; type: biochemical; conditions: FAS; crypto-CP (coumarin-PPant), overnight, 37° C., 1 μM AcpH
[5] = test system: M. tuberculosis MAS; assay: AcpH qualitative CP activity, gel-based, crypto-CP; type: biochemical; conditions: FAS (FAS/PKS hybrid), overnight, 37° C., 1 μM AcpH
[6] = target: T1, S. coelicolor ActACP (Streptomyces coelicolor, UniProt Q02054); assay: AcpH qualitative CP activity, gel-based, crypto-CP; type: biochemical; conditions: PKS; crypto-CP (coumarin-PPant), overnight, 37° C., 1 μM AcpH
T1 construct: made in house
T1 sequence (Q02054 whole entry, looked up): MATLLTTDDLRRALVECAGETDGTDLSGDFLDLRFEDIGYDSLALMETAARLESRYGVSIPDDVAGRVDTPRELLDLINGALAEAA

[7] = target: T2, A. parasiticus PksA (Aspergillus parasiticus, UniProt Q12053); assay: AcpH qualitative CP activity, gel-based, crypto-CP; type: biochemical; conditions: PKS; crypto-CP (coumarin-PPant), overnight, 37° C., 1 μM AcpH
T2 construct: made in house

[8] = test system: G. fujikuroi Pks4; assay: AcpH qualitative CP activity, gel-based, crypto-CP; type: biochemical; conditions: PKS; crypto-CP (coumarin-PPant), overnight, 37° C., 1 μM AcpH
[9] = target: T3, L majuscula JamC (Moorena producens, UniProt Q6E7K7); assay: AcpH qualitative CP activity, gel-based, crypto-CP; type: biochemical; conditions: PKS; crypto-CP (coumarin-PPant), overnight, 37° C., 1 μM AcpH
T3 construct: made in house

[10] = test system: L majuscula JamF; assay: AcpH qualitative CP activity, gel-based, crypto-CP; type: biochemical; conditions: PKS; crypto-CP (coumarin-PPant), overnight, 37° C., 1 μM AcpH
[11] = test system: P. agglomerans AdmI; assay: AcpH qualitative CP activity, gel-based, crypto-CP; type: biochemical; conditions: PKS; crypto-CP (coumarin-PPant), overnight, 37° C., 1 μM AcpH
[12] = test system: P. agglomerans AdmA; assay: AcpH qualitative CP activity, gel-based, crypto-CP; type: biochemical; conditions: NRPS; crypto-CP (coumarin-PPant), overnight, 37° C., 1 μM AcpH
[13] = test system: A. orientalis CepK; assay: AcpH qualitative CP activity, gel-based, crypto-CP; type: biochemical; conditions: NRPS; crypto-CP (coumarin-PPant), overnight, 37° C., 1 μM AcpH
[14] = test system: P. fluorescens PltL; assay: AcpH qualitative CP activity, gel-based, crypto-CP; type: biochemical; conditions: NRPS; crypto-CP (coumarin-PPant), overnight, 37° C., 1 μM AcpH
[15] = target: P. syringae SyrB1 (Pseudomonas syringae pv. syringae, UniProt Q52400); assay: AcpH qualitative CP activity, gel-based, crypto-CP; type: biochemical; conditions: NRPS; crypto-CP (coumarin-PPant), overnight, 37° C., 1 μM AcpH
[16] = test system: YbbR13; assay: AcpH activity with modified ybbR peptide, qualitative; type: biochemical; conditions: for AcpH activity with modified ybbR peptide: coumarin-PPant labeled
[17] = target: T4, crypto-FITC-YbbR (3) (Bacillus subtilis, UniProt O34659); assay: FRET-quench microwell AcpH kinetics; type: biochemical; conditions: 37° C., FRET-quench microwell plate assay, [AcpH] 1 μm
T4 construct: made in house; host or cells: enzymatic labelling of FITC-ybbR peptide with Sfp and rhodamine-CoA
T4 sequence (O34659 whole entry, looked up): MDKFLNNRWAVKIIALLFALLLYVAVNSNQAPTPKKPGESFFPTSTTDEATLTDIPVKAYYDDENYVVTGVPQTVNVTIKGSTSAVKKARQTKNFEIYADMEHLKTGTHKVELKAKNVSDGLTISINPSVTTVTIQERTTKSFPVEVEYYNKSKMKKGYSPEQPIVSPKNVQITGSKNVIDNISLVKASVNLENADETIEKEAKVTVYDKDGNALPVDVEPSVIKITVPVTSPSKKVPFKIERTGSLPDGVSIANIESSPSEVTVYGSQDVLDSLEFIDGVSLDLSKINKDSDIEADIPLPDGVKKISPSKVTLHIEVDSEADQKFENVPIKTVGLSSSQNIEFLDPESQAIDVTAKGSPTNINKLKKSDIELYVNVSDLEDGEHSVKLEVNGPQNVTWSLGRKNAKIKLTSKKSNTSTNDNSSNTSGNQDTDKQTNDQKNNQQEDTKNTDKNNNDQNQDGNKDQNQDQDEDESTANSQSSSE
Description: Preparation of rhodamine-labeled FITC-ybbR proceeded via reaction of 200 μM FITC-ybbR with 200 μM rhodamine WT-CoA synthesized as described previously^33 with 1 μM Sfp in 50 mM HEPES pH 7.5 and 10 mM MgCl2 for 2 hours at 37° C.
Rhodamine-labeled FITC-Ybbr as well as standard 1:1 apo-FITC-ybbR:rhodamine-CoA was subjected to an 11-point serial dilution in 50 mM TrisCl pH 8.0 to achieve final concentrations of 400-0.4 μM. […] Total reaction volumes were 50 μL and utilized a 96-well Costar 3694 plate (Corning, Lowell, Mass.). Following mixing, reactions were centrifuged for 2 minutes at 1500 rpm, and incubated at 37° C. over 4 hours in a HTS 7000 plus Bioassay Reader (Perkin Elmer, Waltham, Mass.) in kinetic mode. Comparison of enzyme reactions to buffer blank and 1:1 apo-FITC-ybbR:rhodamine-CoA standard allowed calculation of product formation and determination of Michaelis-Menten kinetics using GraphPad Prism.

[18] = target: M. tuberculosis AcpM (Mycobacterium tuberculosis, UniProt P9WQF3); conditions: FAS; crypto-CP (coumarin-PPant), overnight, 37° C., 1 μM AcpH
[19] = target: T5, V. cholerae VibB (Vibrio cholerae serotype O1, UniProt P0C6D3); conditions: NRPS; crypto-CP (coumarin-PPant), overnight, 37° C., 1 μM AcpH
T5 sequence (P0C6D3 whole entry, looked up): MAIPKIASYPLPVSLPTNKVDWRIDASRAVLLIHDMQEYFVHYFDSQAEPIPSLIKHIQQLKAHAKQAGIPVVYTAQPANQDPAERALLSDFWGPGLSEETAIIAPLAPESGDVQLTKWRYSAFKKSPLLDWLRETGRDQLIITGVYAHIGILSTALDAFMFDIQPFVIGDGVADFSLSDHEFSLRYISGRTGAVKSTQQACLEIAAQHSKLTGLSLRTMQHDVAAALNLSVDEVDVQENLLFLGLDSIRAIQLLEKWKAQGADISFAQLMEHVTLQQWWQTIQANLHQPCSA

[20] = target: holo-ACP (E. coli) (Escherichia coli, UniProt P0A6A8); conditions: 37° C., HPLC detection, [AcpH] 1 (CyAcpH 0.005) μm
Description: Holo-E. coli AcpP was prepared as a serial dilution in 50 mM TrisCl, 250 mM NaCl, 30 mM MgCl2, and 2 mM MnCl2. […] CyAcpH was prepared at 10 nM in the same AcpH buffer. […] Reactions were transferred to prewarmed shaker at 37° C. and were quenched with 100 mM EDTA after 10 minutes. Samples were centrifuged and evaluated at 210 nm with HPLC using an acetonitrile gradient to determine apo-AcpP product formation. Michaelis-Menten kinetics were calculated using GraphPad Prism (GraphPad Software, La Jolla, Calif.).
E. coli holo-ACP was diluted into 50 mM TrisCl pH 8.0, 250 mM NaCl, 10% glycerol, 30 mM MgCl2 and 2 mM MnCl2 buffer to a concentration of 800 μM. […] AcpH was diluted from MOPS lysis buffer into 50 mM TrisCl pH 8.0, 250 mM NaCl, 10% glycerol and added to an equal volume of the holo-ACP serial dilution to initiate the reaction. Reaction tubes were transferred to a pre-warmed rack at 37° C. and shaken for the duration of the experiment. […] All samples were frozen at -80° C. until evaluated by HPLC.
Kinetics samples were mixed briefly with finger flicking, and centrifuged at 13000 rpm for 10 minutes at room temperature prior to transferring contents into HPLC vials. 20 μL of each reaction time point was injected on an Agilent 1100 series HPLC with column (Burdick & Jackson OD5 #9575, 25 cm×4.6 mm ID) using an acetonitrile/water gradient. Both water and acetonitrile contained 0.05% TFA. Method gradient for each injection: 0-5 min with 10% acetonitrile, 5-30 min with 10-100% acetonitrile, 30-35 min with 100% acetonitrile, 35-37 min with 100-10% acetonitrile, 37-40 min with 10% acetonitrile. HPLC-grade solvents (J. T. Baker, Phillipsburg, N.J.) were used exclusively. Apo- & holo-ACP protein standards were used to validate the retention times identified using 210 nm UV light at approximately 21 and 19 minutes, respectively. Peak integration was performed for all samples, and substrate turnover was calculated from the ratio of apo- to holo-ACP present in the HPLC trace and the known concentration of total ACP in reaction samples. Calculated rates for AcpH versus substrate concentration were obtained through Excel data analysis and graphed in Prism GraphPad using the “Michaelis-Menten” function for enzyme kinetics, with a zero data point added for substrate concentration of 0 μM*min-1 and 0 μM substrate for AcpH graphs.

[21] = target: T6, ybbR (Bacillus subtilis, UniProt O34659); conditions: Sfp for ybbR; cited from earlier work
T6 sequence (O34659 whole entry, looked up): T4 sequence (O34659 whole entry, looked up)

[22] = target: apo-E. coli AcpP (Escherichia coli, UniProt P0A6A8); conditions: Sfp for apo-E. coli AcpP; cited from earlier work

B1: CyAcpH: acyl carrier protein hydrolase homolog from Cyanothece PCC 7822, YP13 003888700.1 (protein)
chain: MNYLAHLFLADPTPESQIGNLLGDFVKGKIDNLSSIYSPEIIRGVKTHQKIDIFTDHHPIFKTSKQRLNQNHRKFAGVIIDIYYDHFLAKNWLIYSEQDLDEFVANTYQMLEQHQLLLPEKLQKALPCMIQEDWLGSYRYFEGIDQTFSRLSRRIKRTNNIAFALEDLIQNYSQLEEDFLQFFPQLIDYVNLA
modifications: Cyanothece sp. PCC 7822
- AcpH qualitative CP activity [1]: YES
- AcpH qualitative CP activity [2]: YES
- AcpH qualitative CP activity [3]: YES^†
- AcpH qualitative CP activity [4]: YES
- AcpH qualitative CP activity [5]: no
- AcpH qualitative CP activity [6]: no
- AcpH qualitative CP activity [7]: YES
- AcpH qualitative CP activity [8]: no
- AcpH qualitative CP activity [9]: YES
- AcpH qualitative CP activity [10]: no
- AcpH qualitative CP activity [11]: no
- AcpH qualitative CP activity [12]: no
- AcpH qualitative CP activity [13]: no
- AcpH qualitative CP activity [14]: no
- AcpH qualitative CP activity [15]: no
- qualitative activity for all ybbR constructs ([16]; Coumarin-PPant conjugated to all ybbR variations, Urea-PAGE): qualitative activity
- AcpH activity with modified ybbR peptide ([16]; YbbR13: N-term 6xHis, C-term GFP): YES
- AcpH activity with modified ybbR peptide ([16]; YbbR13: N-term FITC, C-term N/A): YES
- AcpH activity with modified ybbR peptide ([16]; YbbR13: N-term GFP, C-term 6xHis): YES
- AcpH activity with modified ybbR peptide ([16]; YbbR13 free peptide: N-term N/A, C-term N/A): YES
- Km [17]: 21 µM
- Vmax [17]: 0.004 ± 0.004 min⁻¹
- kcat [17]: 6.7e-05 ± 6.7e-05 s⁻¹
- AcpH qualitative CP activity [18]: YES
- AcpH qualitative CP activity [19]: no
- Km [20]: 58 ± 9 µM
- Vmax [20]: 1.1 ± 0.1 min⁻¹
- kcat [20]: 3.52 s⁻¹ and 3.52 ± 0.183 s⁻¹

B2: Sfp: phosphopantetheinyl transferase (PPTase) from Bacillus subtilis (protein, UniProt P39135 1-224, looked up)
4'-phosphopantetheinyl …: MKIYGIYMDRPLSQEENERFMSFISPEKREKCRRFYHKEDAHRTLLGDVLVRSVISRQYQLDKSDIRFSTQEYGKPCIPDLPDAHFNISHSGRWVICAFDSQPIGIDIEKTKPISLEIAKRFFSKTEYSDLLAKDKDEQTDYFYHLWSMKESFIKQEGKGLSLPLDSFSVRLHQDGQVSIELPDSHSPCYIKTYEVDPGYKMAVCAAHPDFPEDITMVSYEELL
- kcat [21]: 11
- kcat [22]: 0.0967 s⁻¹

From US9823254B2, “Reversible chemoenzymatic labeling of native and fusion carrier protein motifs” (The Regents of the University of California, priority 2012, dated 2017)
